Biological target: T1, Rif1 NTD (100-1322) C466A/C473A (Saccharomyces cerevisiae, UniProt P29539 100-1322, C466A;C473A)
T1 sequence: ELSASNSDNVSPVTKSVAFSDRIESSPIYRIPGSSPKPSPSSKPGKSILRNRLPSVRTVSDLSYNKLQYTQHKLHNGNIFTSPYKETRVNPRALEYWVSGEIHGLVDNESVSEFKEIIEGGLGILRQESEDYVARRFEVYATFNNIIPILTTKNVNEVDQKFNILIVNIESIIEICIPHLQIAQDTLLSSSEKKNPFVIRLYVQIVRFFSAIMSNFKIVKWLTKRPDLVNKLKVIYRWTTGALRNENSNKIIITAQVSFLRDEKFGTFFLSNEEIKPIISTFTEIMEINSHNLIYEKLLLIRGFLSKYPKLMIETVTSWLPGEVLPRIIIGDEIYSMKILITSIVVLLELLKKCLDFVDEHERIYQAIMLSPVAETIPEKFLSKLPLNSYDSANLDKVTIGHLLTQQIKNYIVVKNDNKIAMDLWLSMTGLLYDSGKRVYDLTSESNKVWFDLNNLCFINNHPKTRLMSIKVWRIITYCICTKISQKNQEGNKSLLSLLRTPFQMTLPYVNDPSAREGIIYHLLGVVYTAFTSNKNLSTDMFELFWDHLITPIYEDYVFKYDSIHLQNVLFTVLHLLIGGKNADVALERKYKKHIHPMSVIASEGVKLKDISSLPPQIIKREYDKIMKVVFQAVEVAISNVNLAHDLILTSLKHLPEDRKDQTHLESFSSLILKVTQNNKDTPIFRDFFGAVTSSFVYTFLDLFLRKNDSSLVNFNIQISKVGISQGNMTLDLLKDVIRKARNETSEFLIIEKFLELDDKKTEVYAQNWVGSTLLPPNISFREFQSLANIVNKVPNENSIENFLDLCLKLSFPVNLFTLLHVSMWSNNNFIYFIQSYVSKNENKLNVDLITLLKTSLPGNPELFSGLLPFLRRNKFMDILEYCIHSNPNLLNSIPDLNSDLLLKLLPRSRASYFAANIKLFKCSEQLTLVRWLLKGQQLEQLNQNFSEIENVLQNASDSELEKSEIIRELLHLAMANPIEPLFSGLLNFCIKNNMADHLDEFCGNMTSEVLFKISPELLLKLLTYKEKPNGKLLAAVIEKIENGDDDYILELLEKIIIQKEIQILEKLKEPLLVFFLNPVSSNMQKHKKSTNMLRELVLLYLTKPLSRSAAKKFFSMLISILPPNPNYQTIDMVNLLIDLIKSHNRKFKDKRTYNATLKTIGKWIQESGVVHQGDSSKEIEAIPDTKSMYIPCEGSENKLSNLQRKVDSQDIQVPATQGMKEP
Test: EMSA; protein 10-160 nM, DNA 1 nM; apparent affinity similar to wild-type; 20 mM Tris-HCl pH 8.0, 100 mM NaCl, 2.5 mM MgCl2, 10 mM CaCl2, 0.1 mg/ml BSA, 1 mM TCEP, 30 min at 20 °C; 1.2% agarose gel, 0.5x TBE, 4 °C
Details: protein: recombinant; tags: N-terminal Strep(II); label: 5'-32P on EMSA1; blunt

B1: 30 bp dsDNA (EMSA1/EMSA2) (dsDNA)
DNA 1: TAGCAAGGCACTGGTAGAATTCGGCAGCGT
DNA 2: ACGCTGCCGAATTCTACCAGTGCCTTGCTA
binding result: binds

From publication PMC6557901, “Rif1 S-acylation mediates DNA double-strand break repair at the inner nuclear membrane”
